Results as given in paper PMC3712923, “Structure-Guided Design of an Engineered Streptavidin with Reusability to Purify Streptavidin-Binding Peptide Tagged Proteins or Biotinylated Proteins” (PLoS ONE, 2013).

Experiments:
Assay in all cases: SPR; BIAcoreX; synthetic SBP peptide thiol-coupled by its N-terminal cysteine to a CM5 chip, streptavidin variant as analyte; blank flow cell as reference
Settings in all cases: both partners purified
[1] = target: T1, SAVSBPM18 engineered streptavidin (S27A, G48T) (UniProt P22629 25-183, S27A | G48T)
T1 construct: streptavidin with the double mutation S27A, G48T; Secreted by means of the B. subtilis levansucrase (SacB) signal peptide; also called streptavidin SAVSBPM18; source: B. subtilis WB800[pSAVSBPM18], secreted, purified (biotin-agarose)

wild-type streptavidin = target: T2, wild-type streptavidin (UniProt P22629 25-183)
T2 construct: wild-type streptavidin, commercial; also called wt SAV; wt streptavidin; source: bought: Sigma Canada

[2] = target: T3, SAVSBPM12 streptavidin mutein (G48T) (UniProt P22629 25-183, G48T)
T3 construct: streptavidin with the mutation G48T; Secreted by means of the SacB signal peptide; Its oligomeric state was not measured; also called G48T streptavidin mutein; source: B. subtilis WB800[pSAVSBPM12], secreted, purified (biotin-agarose), denatured and renatured, then iminobiotin-agarose
T3 sequence (P22629 25-183 G72T): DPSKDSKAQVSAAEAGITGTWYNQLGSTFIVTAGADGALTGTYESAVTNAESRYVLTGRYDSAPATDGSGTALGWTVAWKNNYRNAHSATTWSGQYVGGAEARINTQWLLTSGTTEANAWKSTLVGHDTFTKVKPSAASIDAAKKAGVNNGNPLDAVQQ

T2 sequence (P22629 25-183): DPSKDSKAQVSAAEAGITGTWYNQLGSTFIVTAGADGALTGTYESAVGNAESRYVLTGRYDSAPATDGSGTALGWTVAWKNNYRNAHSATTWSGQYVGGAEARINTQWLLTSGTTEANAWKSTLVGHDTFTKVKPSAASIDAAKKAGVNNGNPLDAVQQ
T1 sequence (P22629 25-183 S51A/G72T): as the sequence (P22629 25-183 G72T) above, with S27A counted along it

B1: synthetic 59-amino acid peptide with the full length SBP tag (peptide)
peptide: CGGGGSTSGGSTSGGSTSGGGMDEKTTGWRGGHVVEGLAGELEQLRARLEHHPQGQREP
notes: N-terminal cysteine for thiol coupling to the CM5 chip, then the 20-amino-acid glycine-rich linker; the limits are worked out as 1 Cys + 20 linker + 38 SBP = 59; also called SBP tag (peptide); synthetic SBP tag; source: synthetic peptide (Peptide 2.0 Inc.)
**Q.** How did the Kd [1] turn out when B1 was run?
**A.** The Kd was 7.67 nM.

**Q.** And the koff [1]?
**A.** The koff was 0.000821 s⁻¹.

**Q.** What about the kon [1] of the same binder?
**A.** The kon was 107000 M⁻¹ s⁻¹.

**Q.** And the Kd (wild-type streptavidin)?
**A.** The Kd was 1.65 nM.

**Q.** What about the koff (wild-type streptavidin) of the same binder?
**A.** Its koff is 0.000496 s⁻¹.

**Q.** What about the kon (wild-type streptavidin) of the same binder?
**A.** The kon was 300000 M⁻¹ s⁻¹.

**Q.** What about the Kd [2] of the same binder?
**A.** Its Kd is 1.99 nM.

**Q.** What about the koff [2] of the same binder?
**A.** Its koff is 0.00056 s⁻¹.

**Q.** What about the kon [2] of the same binder?
**A.** Its kon is 281000 M⁻¹ s⁻¹.
